# From the nanobody polyreactivity screen of Harvey et al. (2022)
# Assay: yeast display, Sf9 membrane polyspecificity reagent, FACS + sequencing; frameworks hold sequencing errors
# In short: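 Sorting gates, low and high (top ~1%), were placed on anti-HA fluorescence to track expression and on streptavidin fluorescence to track reagent binding. A clone's polyreactivity label is taken from the gate it came out of. The reagent was 10% biotinylated, detergent-solubilized Sf9 membrane, applied for 1 hour at 4 °C to galactose-induced yeast display cells.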
row,Sequence,polyreactivity (PSR sort gate)
1,QVQLVESGGGLVQAGGSLRLSCAASGFIFPWYTRGWYRQAPGKERELVAVINQSGGSTYYADSVKGRFTISRDNAKNTVYLQMNSLKPEDTAVYYCAAKSYRGSVKLRWSERGYWGQGTQVTVSS,high polyreactivity
2,QVQLVESGGGLVQAGGSLRLSCAASGFIFPYYAMGLYRQAPGKERELVAAITFSATRTYYADSVKGRFTISRDNAKNTVYLQMNSLKPEDTAVYYCKARGGVYGSYFEFNYWRQGTQVTVSS,low polyreactivity
3,QVQLVESGGGLVQAGGSLRLSCAASGFIFPYYAMGWYRQAPGKEREFVAAITFSATRTYYADSVKGRFTISRDNAKNTVYLQMNSLKPEDTAVYYCNARGGVYGSYFEFNYWGQGTQVTVSS,low polyreactivity
4,QVQLVESGGGLVQAGGSLRLSCAASGFIFPYYDMGWYRQAPGKEREFVAAITKSGGRTYYADSVKGRFTISRDNAKNTVYLQMNSLKPEDTAVYYCNADDPDYLVSYRYDYWGQGTQVTVSS,low polyreactivity
5,QVQLVESGGGLVQAGGSLRLSCAASGFIFPYYDMGWYRQAPGTERELVAAISWSGDSTYYADSVKGRFTISRDNAKNTVYLQMNSLKPEDTAVYYCNVRARYQRYYYWGQGTQVTVSS,high polyreactivity
6,QVQLVESGGGLVQAGGSLRLSCAASGFIFQEYVMGWYRQAPGKERELVAAISRSGGRTYYADSVKGRFTISRDNAKNTVYLQMNSLKPEDTAVYYCAATYTKSHGVRYYHWGQGTQVTVSS,high polyreactivity
7,QVQLVESGGGLVQAGGSLRLSCAASGFIFQGYAMGWYRQAHGKEREFVAAITTSGGTTYYADSVKGSFTISRDNAKNTVYLQKNSLKPEDTAVYYCAARGATVSTRIYGYWGQGPQVTVSS,high polyreactivity
8,QVQLVESGGGLVQAGGSLRLSCAASGFIFQPYALGWYRQAPGKERELDASITLRGGSTYYADSVKGRFTISRDNAKNTVYLQMNSLKPEDTAVYYCAARIYQYWGGHYDYWGQGTQVTVSS,high polyreactivity
9,QVQLVESGGGLVQAGGSLRLSCAASGFIFQPYAMGWYRPAPGKERELVAGITGSGGNTYYADSVKGRFTISRDNAKNTVYLQMNSLKPEDTAVYYCAARRHIFLLIIWSGRVDYWGQGTEVTVSS,low polyreactivity
10,QVQLVESGGGLVQAGGSLRLSCAASGFIFQSYAMGWYRQAPGKERELVASISASGGSTYYADSVKGRFTISRDNAKNTVYLQMNSLKPEDTAVYYCAAGYWSYWSLRMDYWGQGTQVTVSS,high polyreactivity
11,QVQLVESGGGLVQAGGSLRLSCAASGFIFQVYAMGWYRQAPGKERELVASISSSGGSTYYADSVKGRFTISRDNAKNTVYLQMNSLKPEDTAVYYCAVEQRYRYWYRYRYKFLLDSDYWGQGTQVTVSS,high polyreactivity
12,QVQLVESGGGLVQAGGSLRLSCAASGFIFQYNTMGWYRQAPGKERELVAVITRTGSTNYADSVKGRFTISRDNGKNTVYLQMNSLQPEDTAVYYCATSVYSRPRKPRYYYWGQGTQVTVSS,high polyreactivity
13,QVQLVESGGGLVQAGGSLRLSCAASGFIFQYYAMGWYRQAPGKERELVAAINRGGGTHYADSVKGRFTISRDNAKNTVYLQMNSLKPEDTAVYYCNKVYYWPGSRPSRYEYWGQGTQVTVSS,low polyreactivity
14,QVQLVESGGGLVQAGGSLRLSCAASGFIFQYYAMGWYRQAPGKERELVAAISWRSTSTYYADSVKGRFTISRDNAKNTVYLQMNSLKPEDTAVYYCAASPGFSIGYEYWGQGTQVTVSS,low polyreactivity
15,QVQLVESGGGLVQAGGSLRLSCAASGFIFQYYAMGWYRQAPGKERELVAAITPSGTSTYYADSVKGRFTISRDNAKNTVYLQMNSLKPEDTAVYYCAAYYRYASDYWGQGTQVTVSS,low polyreactivity
16,QVQLVESGGGLVQAGGSLRLSCAASGFIFRAYAMGWYRQAPGKERELVAAISGSGGSTYYADTVKGRFTISRDNAMNTVDLQMNSLKPEDTAVYYCNKYVGYYAYNYNYWGQGTQVTVSS,high polyreactivity

row,Sequence,polyreactivity (PSR sort gate)
1,QVQLVESGGGLVQAGGSLRLSCAASGFIFRAYVMGWYRQAPGKERELVAAISYRGGSTNYADSVKGRFTISRDTAKNTVYLHMNSLKPEDTAVYYCAADQVHKREYDYWGQGTQVTVSS,low polyreactivity
2,QVQLVESGGGLVQAGGSLRLSCAASGFIFRDYDMGWYRQAPGKERELVPAISWRGGTYYADSVKGRFTISRDNAKNTVYLQMNSLKPEDTAVYYCNATRYRLRPSGVRYKYNYWGQGTQVTVSS,low polyreactivity
3,QVQLVESGGGLVQAGGSLRLSCAASGFIFRFNALGWYRQAPGKERELVAAISGSGGITYYADSVKGRFTISRDNAKNTVYLQMNSLKPEDTAVYYCAAGTGKRSVRFDYWGQGTQVTVSS,high polyreactivity
4,QVQLVESGGGLVQAGGSLRLSCAASGFIFRFNAMGWYRQAPGKERELVAGITWSGGSTYYADSVKGRFTISRDNAKNTVYLQMNSLKPEDTAVYYCDADNPYLGRKFDYWGQGTQVTVSS,high polyreactivity
5,QVQLVESGGGLVQAGGSLRLSCAASGFIFRGYAMGWYRQAPGKERELVAAINSGGSTNYADSVKGRFTISRDNAKNTVYLQMNSLKPEDTAVYYCAARVKTSYRYLRTYNYWGQGTQVTVSS,high polyreactivity
6,QVQLVESGGGLVQAGGSLRLSCAASGFIFRGYAMGWYRQAPGKERELVAAITSSGGDTYYADSVKGRFTISRDNAKNTVYLQMNSLKPEDSAVYYCAKRARRIGDVNMGSWGQGSQVTVSS,low polyreactivity
7,QVQLVESGGGLVQAGGSLRLSCAASGFIFRHYAMGWYRQSPGKAREMVAVINWSGSSTYYADSVKGRFTISRDNEKNTVFLQMNSLKPEDTAVYYCAVRSLRVDKYGYWGLGTQVTVSS,high polyreactivity
8,QVQLVESGGGLVQAGGSLRLSCAASGFIFRLYAMGWYRQAPGKERELVAAISTGGGRTYYADSVKGRFTFSGDNAKNTVYLQMNSLKPEDTADYDCNTLVEPHYDYWGQGTQVTVSS,high polyreactivity
9,QVQLVESGGGLVQAGGSLRLSCAASGFIFRLYAMGWYRQAPGKERELVAAITWSGGSTYYADSVKGRFTISRDNAKNTVYLQMNSLKPEDTAVYYCAAYATKNAFEYWGQGTQVTVSS,high polyreactivity
10,QVQLVESGGGLVQAGGSLRLSCAASGFIFRNYAMGWYRQAPGKERELVAAIDSSGGSTYYADSVKGRFTISRDNAKNTVYLQMNSLKPEDTAVYYCAAESYYYQYEYWGQGTQVTVSS,high polyreactivity
11,QVQLVESGGGLVQAGGSLRLSCAASGFIFRRNAMGWYRQAPGKERELVAAISAGGTSTYYADSVKGRFTISRDNAKNTVYLQMNSLKPEDTAVYYCNKAYYYDAEYDYWGQGTQVTVSS,high polyreactivity
12,QVQLVESGGGLVQAGGSLRLSCAASGFIFRRNAMGWYRQAPGKERELVAAISRTGGSTYYADCVKGRFTISRDNAKNTDYLQMNSLKPEDTAVYYCARYGLVYALGYWGQGTQVTVSS,high polyreactivity
13,QVQLVESGGGLVQAGGSLRLSCAASGFIFRRYALGWYRQAPGKERELVAAISWGGTSTYYADSVKGRFTISRDNAKNTVYLQMNSLKPVDTAGYYCAADRSVRTRGGFDYWGQGTQVTVSS,high polyreactivity
14,QVQLVESGGGLVQAGGSLRLSCAASGFIFRRYAMGWYRQAPGKERELVAAIRSDGSTNYADSVKGRFTISRDNAKNTVYLQMNSLKPEDTAVYDCAATYYSYTWFSQYYYWGQGTQVTVSS,high polyreactivity
15,QVQLVESGGGLVQAGGSLRLSCAASGFIFRRYAMGWYRQAPGKERELVAAITSSGTSTYYADSVKGRFTISRDNAKNTVYLQMNSLKPEDTAVYYCNAAQYYERFNHWGQGTQVTVSS,high polyreactivity
16,QVQLVESGGGLVQAGGSLRLSCAASGFIFRRYVMGWYRQAPGKERELVAAISYGGGSTYYADSVKGRFTISRDNAKNTVYLQMNSLKPEDTAVYYCAARVYYDAYDYWGQGTQVTVSS,high polyreactivity
